The values below come from paper PMC3058729.

The target of the assay is GST fusion protein of the cytoplasmic region of DSC2a A897fsX900 (aa 716–899) (human) (UniProt Q02487). Briefly: pull-down.
Chain of UniProt Q02487 (Q02487 716-899): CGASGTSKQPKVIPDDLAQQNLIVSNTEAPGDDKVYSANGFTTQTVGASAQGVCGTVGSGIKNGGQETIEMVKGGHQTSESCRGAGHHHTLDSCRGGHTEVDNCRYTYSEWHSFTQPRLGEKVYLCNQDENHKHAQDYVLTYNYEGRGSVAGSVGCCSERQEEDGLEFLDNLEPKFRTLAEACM

B1: plakoglobin (PG), endogenous in adult rat heart lysate (natural protein)
chain: MEVMNLIEQPIKVTEWQQTYTYDSGIHSGVNTCVPSVSSKGLLDEDDTCGRQYTLKKTTTYTQGVPQSQGDLEYQMSTTARAKRVREAMCPGVSGEDSSLLLATQVEGQTTNLQRLAEPSQLLKSAIVHLINYQDDAELATRALPELTKLLNDEDPVVVTKAAMIVNQLSKKEASRRALMGSPQLVAAVVRTMQNTSDLDTARCTTSILHNLSHHREGLLAIFKSGGIPALVRMLSSPVESVLFYAITTLHNLLLYQEGAKMAVRLADGLQKMVPLLNKNNPKFLAITTDCLQLLAYGNQESKLIILANGGPQGLVQIMRNYSYEKLLWTTSRVLKVLSVCPSNKPAIVEAGGMQALGKHLTSNSPRLVQNCLWTLRNLSDVATKQEGLENVLKILVNQLSVDDVNVLTCATGTLSNLTCNNSKNKTLVTQNSGVEALIHAILRAGDKDDITEPAVCALRHLTSRHPEAEMAQNSVRLNYGIPAIVKLLNQPNQWPLVKATIGLIRNLALCPANHAPLQEAAVIPRLVQLLVKAHQDAQRHVAAGTQQPYTDGVRMEEIVEGCTGALHILARDPMNRMEIFRLNTIPLFVQLLYSSVENIQRVAAGVLCELAQDKEAADAIDAEGASAPLMELLHSRNEGTATYAAAVLFRISEDKNPDYRKRVSVELTNSLFKHDPAAWEAAQSMIPINEPYADDMDATYRPMYSSDVPLDPLDMHMDMDGDYPMDTYSDGLRPPYPAADHMLA
On to B1, for which the reduction of binding against DSC2a WT (densitometry) stood at 50%.
